Laboratory results published in PMC6123721 (2018).

B1: MSP2 14-22 peptide (minimal 6D8 epitope of merozoite surface protein 2) (peptide)
chain: NAYNMSIRR
B2: FC27 MSP2 14-34 peptide (C-terminally extended epitope, FC27 allele) (peptide)
chain: NAYNMSIRRSMANEGSNTNSV
B3: 6D8 single-chain Fv (scFv) (scFv, V domains shown)
VH: QVQLQQSGDELVKPGASVKLSCTVSGFNIKDDFIHWMKQRPEQGLEWIGRIDPANGYTKYAPKFQDKATMTADTSSNTAYLQLSSLASEDAAVYYCATYGVAYWGQGTLVTVSA
VL: DIVLTQSPASLAVSLGQRATISCKASQSVDHDGDSYMNWFQQKPGQSPKLLIYAASNLESGIPARFSGSGSGTDFTLNIHPVEEEDAATYYCQQTNEDPYTFGGGTKLEIK
B4: 3D7 MSP2 14-34 peptide (C-terminally extended epitope, 3D7 allele) (peptide)
chain: NAYNMSIRRSMAESKPSTGAG

Columns and labels:
Experiment in all cases: ITC
[1] = target: B3
3D7-MSP2 = target: 3D7-MSP2
FC27-MSP2 = target: FC27-MSP2

Row | Binder | Kd [1] | Kd (3D7-MSP2) | Kd (FC27-MSP2)
1 | B1 | 0.006 µM |  | 
2 | B2 | 0.016 µM |  | 
3 | B3 |  | 0.061 µM | 0.013 µM
4 | B4 | 0.064 µM |  | 
